According to PMC9482650, “Quantitative fragmentomics allow affinity mapping of interactomes” (Nature Communications, 2022):

T1: APBA2_1, Q99767
T1 sequence (Q99767 563-664, limits assumed, looked up): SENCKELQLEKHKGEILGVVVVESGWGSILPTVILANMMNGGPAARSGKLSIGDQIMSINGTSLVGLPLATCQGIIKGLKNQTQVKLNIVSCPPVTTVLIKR

T2: DFNB31_2, Q9P202
T2 sequence (Q9P202 274-371, limits assumed, looked up): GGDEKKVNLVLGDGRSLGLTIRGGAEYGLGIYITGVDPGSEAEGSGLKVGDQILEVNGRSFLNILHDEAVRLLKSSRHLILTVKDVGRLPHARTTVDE

T3: HTRA3, P83110
T3 sequence (P83110 354-453, limits assumed, looked up): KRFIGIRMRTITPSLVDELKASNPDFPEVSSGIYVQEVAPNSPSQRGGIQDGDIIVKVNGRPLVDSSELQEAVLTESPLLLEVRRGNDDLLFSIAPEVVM

T4: RHPN1, Q8TCX5
T4 sequence (Q8TCX5 508-602, limits assumed, looked up): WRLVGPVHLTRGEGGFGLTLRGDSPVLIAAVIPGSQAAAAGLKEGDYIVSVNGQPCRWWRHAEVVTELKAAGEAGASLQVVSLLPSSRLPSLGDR

T5: MPDZ_5, O75970
T5 sequence (O75970 695-796, limits assumed, looked up): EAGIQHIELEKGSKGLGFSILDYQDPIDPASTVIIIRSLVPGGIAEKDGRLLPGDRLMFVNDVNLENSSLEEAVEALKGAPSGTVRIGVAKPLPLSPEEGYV

T6: DVL3, Q92997
T6 sequence (Q92997 244-331, limits assumed, looked up): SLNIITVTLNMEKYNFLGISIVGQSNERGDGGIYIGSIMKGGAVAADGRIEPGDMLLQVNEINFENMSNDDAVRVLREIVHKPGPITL

T7: APBA1_1, Q02410
T7 sequence (Q02410 651-752, limits assumed, looked up): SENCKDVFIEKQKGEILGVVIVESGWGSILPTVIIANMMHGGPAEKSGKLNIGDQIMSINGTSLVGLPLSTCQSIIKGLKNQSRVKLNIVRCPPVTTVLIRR

T8: APBA2_2, Q99767
T8 sequence (Q99767 654-744, limits assumed, looked up): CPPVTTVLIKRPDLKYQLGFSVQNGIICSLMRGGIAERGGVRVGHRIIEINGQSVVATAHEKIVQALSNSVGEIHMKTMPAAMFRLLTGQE

T9: DFNB31_1, Q9P202
T9 sequence (Q9P202 135-233, limits assumed, looked up): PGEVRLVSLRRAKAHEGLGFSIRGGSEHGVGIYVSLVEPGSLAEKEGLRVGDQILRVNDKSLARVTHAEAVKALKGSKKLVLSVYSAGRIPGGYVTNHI

T10: SIPA1L2, Q9P2F8
T10 sequence (Q9P2F8 945-1036, limits assumed, looked up): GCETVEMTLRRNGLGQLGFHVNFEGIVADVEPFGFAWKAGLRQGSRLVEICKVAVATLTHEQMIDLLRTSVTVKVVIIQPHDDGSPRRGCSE


Experiments:
Assay in all cases: holdup assay
Parameters in all cases: key: below the threshold = too weak to quantify, mostly under pKd 3.1 to 4
Conditions in all cases: plain residues with an end cap or a label only (N-terminal biotin on a linker: ttds)
[1] = molecular target: LNX1_1, Q8TBB1
[2] = molecular target: GRID2IP_2, A4D2P6
[3] = molecular target: IL16_1, Q14005
[4] = molecular target: AHNAK1, Q09666
[5] = molecular target: LIMK2, P53671
[6] = molecular target: FRMPD3, Q5JV73
[7] = molecular target: T1, APBA2_1, Q99767
[8] = molecular target: T2, DFNB31_2, Q9P202
[9] = molecular target: NOS1, P29475
[10] = molecular target: T3, HTRA3, P83110
[11] = molecular target: MAGI2_5, Q86UL8
[12] = molecular target: T4, RHPN1, Q8TCX5
[13] = molecular target: MAST1, Q9Y2H9
[14] = molecular target: T5, MPDZ_5, O75970
[15] = molecular target: GRIP2_7, Q9C0E4
[16] = molecular target: GRIP2_6, Q9C0E4
[17] = molecular target: T6, DVL3, Q92997
[18] = molecular target: T7, APBA1_1, Q02410
[19] = molecular target: T8, APBA2_2, Q99767
[20] = molecular target: GORASP1, Q9BQQ3
[21] = molecular target: NHERF2_2, Q15599
[22] = molecular target: MAGI2_3, Q86UL8
[23] = molecular target: GORASP2, Q9H8Y8
[24] = molecular target: DLG1_3, Q12959
[25] = molecular target: T9, DFNB31_1, Q9P202
[26] = molecular target: DLG2_3, Q15700
[27] = molecular target: T10, SIPA1L2, Q9P2F8

Sequence of IL16_1, Q14005 (Q14005 210-306): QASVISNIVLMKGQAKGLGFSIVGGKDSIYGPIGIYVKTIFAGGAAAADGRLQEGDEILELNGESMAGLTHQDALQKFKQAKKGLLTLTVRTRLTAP
Sequence of NOS1, P29475 (P29475 9-101): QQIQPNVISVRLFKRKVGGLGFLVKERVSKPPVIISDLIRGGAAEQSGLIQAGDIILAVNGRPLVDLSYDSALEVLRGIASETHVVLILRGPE
Sequence of LNX1_1, Q8TBB1 (Q8TBB1 261-371): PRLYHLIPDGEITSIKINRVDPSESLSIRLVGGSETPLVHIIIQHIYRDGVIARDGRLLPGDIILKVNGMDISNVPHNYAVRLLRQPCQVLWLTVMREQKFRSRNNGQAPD
Sequence of DLG1_3, Q12959 (Q12959 457-571): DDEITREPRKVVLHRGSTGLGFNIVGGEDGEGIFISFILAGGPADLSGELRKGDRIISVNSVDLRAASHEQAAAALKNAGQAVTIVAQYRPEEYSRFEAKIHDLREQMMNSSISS
Sequence of MAGI2_3, Q86UL8 (Q86UL8 600-682): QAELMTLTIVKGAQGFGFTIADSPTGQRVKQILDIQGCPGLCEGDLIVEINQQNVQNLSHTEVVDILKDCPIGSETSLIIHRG
Sequence of NHERF2_2, Q15599 (Q15599 142-238): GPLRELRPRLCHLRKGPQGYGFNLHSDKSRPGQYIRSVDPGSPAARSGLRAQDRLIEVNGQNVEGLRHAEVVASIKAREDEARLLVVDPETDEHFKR
Sequence of FRMPD3, Q5JV73 (Q5JV73 12-100): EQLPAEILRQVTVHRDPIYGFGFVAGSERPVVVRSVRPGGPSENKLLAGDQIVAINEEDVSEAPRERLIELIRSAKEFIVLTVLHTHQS
Sequence of GRIP2_6, Q9C0E4 (Q9C0E4 648-740): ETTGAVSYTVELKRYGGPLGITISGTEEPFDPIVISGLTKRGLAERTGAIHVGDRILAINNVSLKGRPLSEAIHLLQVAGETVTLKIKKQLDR
Sequence of MAST1, Q9Y2H9 (Q9Y2H9 962-1065): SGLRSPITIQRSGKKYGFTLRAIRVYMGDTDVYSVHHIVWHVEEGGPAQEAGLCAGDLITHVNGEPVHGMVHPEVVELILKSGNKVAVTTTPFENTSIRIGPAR
Sequence of AHNAK1, Q09666 (Q09666 4-100): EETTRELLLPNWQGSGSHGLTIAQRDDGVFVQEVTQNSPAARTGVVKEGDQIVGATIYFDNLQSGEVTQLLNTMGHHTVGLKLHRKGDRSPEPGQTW
Sequence of MAGI2_5, Q86UL8 (Q86UL8 915-1017): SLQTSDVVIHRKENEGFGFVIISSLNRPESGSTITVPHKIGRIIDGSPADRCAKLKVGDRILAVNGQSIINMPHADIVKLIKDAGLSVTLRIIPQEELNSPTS
Sequence of GRIP2_7, Q9C0E4 (Q9C0E4 934-1023): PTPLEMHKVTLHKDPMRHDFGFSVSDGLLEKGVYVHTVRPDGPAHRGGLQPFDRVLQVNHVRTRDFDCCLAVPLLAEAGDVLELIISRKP
Sequence of GRID2IP_2, A4D2P6 (A4D2P6 272-370): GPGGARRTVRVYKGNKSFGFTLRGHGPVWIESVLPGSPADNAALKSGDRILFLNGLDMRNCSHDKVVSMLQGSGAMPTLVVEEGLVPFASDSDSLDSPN
Sequence of GORASP1, Q9BQQ3 (Q9BQQ3 1-208): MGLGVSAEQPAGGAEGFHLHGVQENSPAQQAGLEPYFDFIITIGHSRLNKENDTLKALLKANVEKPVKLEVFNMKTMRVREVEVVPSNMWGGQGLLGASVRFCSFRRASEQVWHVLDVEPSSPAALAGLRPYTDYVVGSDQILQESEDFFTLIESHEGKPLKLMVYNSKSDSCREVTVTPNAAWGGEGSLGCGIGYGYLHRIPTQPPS
Sequence of LIMK2, P53671 (P53671 143-248): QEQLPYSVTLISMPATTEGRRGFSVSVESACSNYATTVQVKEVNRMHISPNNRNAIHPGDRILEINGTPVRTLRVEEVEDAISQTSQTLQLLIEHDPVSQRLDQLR

Row | pKd [1] | pKd [2] | pKd [3] | pKd [4] | pKd [5] | pKd [6] | pKd [7] | pKd [8] | pKd [9] | pKd [10] | pKd [11] | pKd [12] | pKd [13] | pKd [14] | pKd [15] | pKd [16] | pKd [17] | pKd [18] | pKd [19] | pKd [20] | Binder | also measured
1 | below the threshold | below the threshold | below the threshold | below the threshold | below the threshold | below the threshold | below the threshold | below the threshold | below the threshold | below the threshold | below the threshold | below the threshold | below the threshold | below the threshold | below the threshold | below the threshold | below the threshold | below the threshold | below the threshold | below the threshold | PKTPPTDTSV [KIR3DL3, Q8N743] | pKd [21]: below the threshold; pKd [22]: below the threshold; pKd [23]: 4.04; pKd [24]: below the threshold; pKd [25]: 3.69; pKd [26]: 3.77; pKd [27]: below the threshold
2 | below the threshold | 4.08 | below the threshold | below the threshold | below the threshold | below the threshold | below the threshold | below the threshold | 3.76 | below the threshold | 3.82 | 4.42 | 5.01 | below the threshold | below the threshold | below the threshold | below the threshold | below the threshold | below the threshold | below the threshold | IYVPEAQTRL [DLGAP4, Q9Y2H0] | pKd [21]: 4.84; pKd [22]: below the threshold; pKd [23]: below the threshold; pKd [24]: below the threshold; pKd [25]: 3.96; pKd [26]: below the threshold; pKd [27]: below the threshold
